Test results as given in patent US20200138969A1 (published 2020).

T1: human DLL3 (delta-like ligand 3), on the cell surface (human, UniProt Q9NYJ7 27-618)
T1 sequence: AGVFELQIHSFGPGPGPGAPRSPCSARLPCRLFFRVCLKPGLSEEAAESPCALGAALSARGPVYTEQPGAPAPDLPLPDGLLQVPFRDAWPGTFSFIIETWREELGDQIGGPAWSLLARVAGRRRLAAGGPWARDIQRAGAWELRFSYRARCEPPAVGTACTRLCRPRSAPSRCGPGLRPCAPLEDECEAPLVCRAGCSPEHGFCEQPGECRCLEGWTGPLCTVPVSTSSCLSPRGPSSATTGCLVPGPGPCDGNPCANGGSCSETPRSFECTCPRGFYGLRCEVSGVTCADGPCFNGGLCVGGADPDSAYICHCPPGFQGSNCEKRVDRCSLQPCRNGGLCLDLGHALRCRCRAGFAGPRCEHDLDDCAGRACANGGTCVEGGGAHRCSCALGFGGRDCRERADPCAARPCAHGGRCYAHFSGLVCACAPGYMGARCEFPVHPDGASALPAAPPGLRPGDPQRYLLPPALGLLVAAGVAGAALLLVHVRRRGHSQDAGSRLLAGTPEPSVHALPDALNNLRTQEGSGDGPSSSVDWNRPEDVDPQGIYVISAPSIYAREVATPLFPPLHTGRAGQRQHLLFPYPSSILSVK

B1: SC16.34 (antibody, V domains shown)
VH: QIQLVQSGPELKRPGETVKISCKASGYTFTNYGMNWVKQAPGKGLKWMGWINTYTGDPTYADDFKGRFAFSLETSASTAYLQINNLKNEDTATYFCARIGGNSPSDYWGQGTSLTVSS
VL: SIVMTQTPKFLLVSAGDRVTITCKASQSVSNDVAWYQQKPGQSPKLLIYYASNRYSGVPDRFTGSGYGTDFTFTISTVQAEDLAVYFCQQDYSSPWTFGGGTKLEIK
B2: SC16.15 (antibody, V domains shown)
VH: QVQLQQSGAELAKPGASVKMSCKASGYTFTRYWIHWIKQRPGQGLEWIGYINPTTVYTEFNQNFKDKATLTADKSSTTASMQLSSLTSEDSAVYYCARGGSNFFDYWGQGTTLTVSS
VL: DIQMTQSPASLAASVGETVAITCRASENIYYNLAWYQQKQGKSPQLLIYTANSLEDGVPSRFSGSGSGTQYSLKINSMQPEDSATYFCKQAYDVPPTFGGGTKLEIK

Target: T1, human DLL3 (delta-like ligand 3), on …
Assay: cell-based or functional assay

Binder | EC50 of killing of OV26 (ovarian NET NTX tumor) cells with anti-mouse IgG Fab-saporin [nM]
B1 | 5700
B2 | 140
